Each structure is given as a SMILES string. Read-outs that look alike come from different tables or passages of the source.

Results on 3 compounds are retold here after patent US20260224761A1, “DUAL LABELLED COMPOUNDS TARGETING THE PROSTATE SPECIFIC MEMBRANE ANTIGEN” (priority 2023, published 2026).

Series [1] can be described thus: Photophysical characterization (molar extinction coefficient, quantum yield, brightness) in human serum albumin solution. Type of series: physicochemical. As to conditions: for Brightness (HSA): multiplication of molar extinction coefficient and quantum yield. How it is done: (§1) Quantum yield, molar extinction coefficient and serum protein binding experiments were performed according to previously published procedures (Hensbergen A. W. et al., Dyes and Pigments, 2018, 152, 19-28).
Table 1 summarizes the photophysical properties of [^99mTc]PSMA-HSG, [^99mTc]mas3-Cy5(SO3)—EuK and [^99mTc]mas3-(SO3)Cy5(SO3)—EuK and of the different sulfonated Cy5-dyes used for their preparation. […] Because of this latter effect we analyzed the brightness (as multiplication of the molar extinction coefficient and the quantum yield) in humans serum albumin for all three hybrid PSMA agents included in this study (see Table 1). While we indeed see that increasing of the number of sulfonates on the cyanine dye has a positive effect on the brightness all remain within the same order of magnitude.
Because of this latter effect, we analyzed the brightness (as multiplication of the molar extinction coefficient and the quantum yield) in human serum albumin solution for all three hybrid PSMA agents included in this study (see Table 1). While we indeed see that increasing of the number of sulfonates on the cyanine dye has a positive effect on the brightness, all remain within the same order of magnitude.

Series [2] relates to PC3-Pip xenografts in NSG mice. The series can be described thus: In vivo and ex vivo fluorescence imaging of PC3-Pip xenografts in NSG mice. The note with it: for detectable fluorescence signal: 6 h p.i., 0.1 nmol ligand. On the procedure: FIG. 3: In vivo (A) and ex vivo (B) fluorescence imaging of PC3-Pip xenografts in NSG mice using PSMA-HSG (upper two rows), the reference Ac-mas3-Cy5(SO3)—EuK (middle two rows) and Ac-mas3-(SO3)Cy5(SO3)—EuK (lower two rows). Conditions were 2 h p.i. using a peptide dose of 1 nmol/mouse and 6 h p.i. using a peptide dose of 0.1 nmol/mouse, respectively (n=1 per condition). In vivo and ex vivo fluorescence imaging of intact tumors was performed using a clinical-grade fluorescence KARL STORZ Endoscope; fluorescence confocal imaging of 2 mm tumor slices (right) was performed using a Leica SP8 WLL microscope.
In vivo fluorescence imaging of PC3-Pip xenografts in NSG mice (2 h p.i. at a ligand dose of 1 nmol and 6 h p.i. at a ligand dose of 0.1 nmol, respectively; n=1 per compound and condition) was performed using a clinical-grade fluorescence laparoscopy set-up (KARL STORZ Endoskope GMBh & Co. KG). Cy5-based tumor imaging was performed using D-light P system and a prototype modified IMAGE 1 S light source with integrated Cy5 filter (both KARL STORZ Endoskope GMBh & Co. KG). Images were recorded using integrated KARL STORZ software and image processing was performed using in-house developed MATLAB software that provided a signal intensity-based representation of the signal-to-background ratio (SBR; Azargoshasb S. et al., Mol. Imaging Biol., 2022, https://doi.org/10.1007/s11307-022-01736-y; de Barros H. A. et al., Eur. Urol., 2022, 82, 97-105).
Fluorescence Confocal Imaging of Excised Tumor Specimens After in vivo imaging tumor specimens (N=1 per tracer) were excised and cut into 2 mm slices. Prior to imaging, slices were placed on a 35-mm culture dish containing a glass insert (MatTek Co.). Fluorescence confocal imaging was then performed using a Leica SP8 WLL microscope (Leica Microsystems). For assessment of tracer uptake Cy5 settings were used; λex=633 nm, λem=650-700 nm. Images were processed using accompanying LASX software (Leica Application Software Suite 4.8).

Another series deals with plasma proteins. Kind of series: Plasma protein binding. The class given is in vitro ADME. How it is done:
as §1

The target in series [3] is T1, PSMA (Homo sapiens, UniProt Q04609).
T1 construct: using PSMA-expressing LNCaP cells and ([^125I]I-BA)EuK as standard radioligand; endogenous in cells; host or cells: LNCaP cells
T1 sequence (Q04609 whole entry): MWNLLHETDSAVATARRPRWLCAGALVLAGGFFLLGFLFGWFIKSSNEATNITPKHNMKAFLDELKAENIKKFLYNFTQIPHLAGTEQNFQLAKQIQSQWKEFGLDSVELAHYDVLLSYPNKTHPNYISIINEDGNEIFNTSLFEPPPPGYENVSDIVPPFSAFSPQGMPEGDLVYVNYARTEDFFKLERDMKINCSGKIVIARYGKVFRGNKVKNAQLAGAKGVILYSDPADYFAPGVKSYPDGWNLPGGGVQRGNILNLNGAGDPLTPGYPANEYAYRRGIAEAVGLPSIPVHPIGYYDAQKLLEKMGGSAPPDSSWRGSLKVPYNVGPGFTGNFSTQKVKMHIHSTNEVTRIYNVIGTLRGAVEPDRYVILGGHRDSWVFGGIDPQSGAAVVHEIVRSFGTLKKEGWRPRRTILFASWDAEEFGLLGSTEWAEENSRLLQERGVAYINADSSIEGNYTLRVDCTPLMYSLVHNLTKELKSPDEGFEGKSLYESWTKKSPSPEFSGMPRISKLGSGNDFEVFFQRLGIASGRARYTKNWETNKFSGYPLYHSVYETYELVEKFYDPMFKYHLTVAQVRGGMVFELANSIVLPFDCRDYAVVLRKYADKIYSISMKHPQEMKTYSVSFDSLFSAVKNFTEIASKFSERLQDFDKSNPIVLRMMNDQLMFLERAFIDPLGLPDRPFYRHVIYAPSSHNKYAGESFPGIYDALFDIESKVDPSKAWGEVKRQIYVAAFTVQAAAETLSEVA
The series can be described thus: Competitive binding experiments (IC50) using PSMA-expressing LNCaP cells and ([125I]I-BA)EuK as standard radioligand. How it is done: Competitive binding experiments (IC50) were carried out in accordance with an established protocol ([…]. et al., Eur. J. Nuc. Mol. Med. Imaging Res., 2014, 4, 63) using PSMA-expressing LNCaP cells and ([^125I]I-BA)EuK as standard radioligand.

Series [4] has as its target T1, PSMA. As to conditions: LNCaP cells; reference compounds, assayed under identical conditions (literature cited in table title); # = free mas3-chelator; cited from earlier work.
The next series can be described thus: Plasma protein binding. Type of series: in vitro ADME. The note with it: plasma. How it is done: as §1
A short description of series [5]: Biodistribution in LNCaP xenograft bearing NSG mice. The note with it: NSG, mouse, in vivo, iv, 0.1 nmol/animal, total radioactivity, Biodistribution: LNCaP tumor. The class given is in vivo. How it is done:
The biodistribution of [^99mTc]PSMA-HSG, [^99mTc]EuK(SO3)Cy5-mas3 and [^99mTc]EuK(SO3)Cy5(SO3)-mas3 was investigated in LNCaP xenograft bearing NSG mice. […] (0.1 nmol-cohort), respectively.
To assess the influence of the different ligand designs of [^99mTc]PSMA-HSG and [^99mTc]mas3-(SO3)Cy5(SO3)—EuK on in vivo PSMA-targeting and general pharmacokinetics, their in vivo biodistribution was investigated in LNCaP xenograft bearing NSG mice in two different experimental settings: • A) at 2 h p.i. using a ligand dose of 1 nmol/animal. These conditions were chosen to allow comparability of the data from this study (Table 3) with previous results in a different tumor model (Hensbergen, A. W. et al., J. Nucl. Med., 2020, 61, 234-241). Here, [^99mTc]mas3-Cy5(SO3)—EuK was additionally included as an internal reference to establish the “missing link” between studies. • B) at 6 h p.i. using a ligand dose of 0.1 nmol/animal (Table 4). The latter settings were adapted to a timeline and dosing with more similarity to the clinical situation (surgery at a later time point, microdosing principle). Of note, however, a ligand amount of 0.1 nmol/mouse (extrapolation: 280 nmol/70 kg patient) still exceeds the potentially applicable clinical dose (48 nmol/70 kg patient for a compound with a molecular weight of −2100 g/mol). Nevertheless, it represents a dose level at which significant competition effects between unlabeled precursor and radioligand for PSMA binding sites in tumor tissue are not probable (Eder A. C. et al., J. Nucl. Med., 2021, 62, 1461-1467; Kalidindi T. M. et al., Eur. J. Nucl. Med. Mol. Imaging, 2021, 48, 2642-2651).

A short description of series [6]: Lipophilicity, modified shake-flask method. The class given is physicochemical. How it is done: The lipophilicity of [^99mTc]PSMA-HSG, [^99mTc]EuK(SO3)Cy5-mas3 and [^99mTc]EuK(SO3)Cy5(SO3)-mas3 was determined via a modified shake-flask method as described ([…]. et al., Eur. J. Nuc. Mol. Med. Imaging Res., 2014, 4, 63).
Series [7] relates to LNCaP xenograft bearing male NSG mice. The series can be described thus: Small animal SPECT/CT blocking study with 2-PMPA co-injection. Type of series: in vivo. As to conditions: 2-4 h p.i.; 1 nmol; co-injection of 1 μmol 2-PMPA. How it is done: FIG. 1: Small animal SPECT/CT study in LNCaP xenograft bearing male NSG mice at 2-4 h p.i. […] White arrows indicate the position of the LNCaP xenograft. SPECT/CT images were acquired using an Albira Si PET/SPECT/CT (Bruker Biospin Corporation, Woodbridge, CT, USA) instrument. […] For reconstruction, an ordered subset expectation-maximization algorithm (OSEM) with two iterations was used, and scatter correction was applied. For CT, the following parameters were used: 400 μA intensity and 35 kV voltage, 600 projections. Images were reconstructed using a filtered back-projection (FBP) algorithm with de-ringing correction. Fused representative SPECT/CT images were acquired using the PMOD software (PMOD technologies, version 3.709, Zurich, Switzerland).

Where [8] appears, read: tendency to associate with plasma proteins.

A word on the IC50: it is the point on the concentration scale where inhibition reaches its midpoint. Take `CC(=O)SCC(=O)N[C@H](CO)C(=O)N[C@H](CO)C(=O)N[C@H](CO)C(=O)NCCCCCC(=O)NCCCCN1/C(=C/C=C/C=C/C2=[N+](CCCCCC(=O)NCCCC[C@H](NC(=O)N[C@@H](CCC(=O)O)C(=O)O)C(=O)O)c3ccc(S(=O)(=O)O)cc3C2(C)C)C(C)(C)c2cc(S(=O)(=O)[O-])ccc21` [Ac-mas3-(SO3)Cy5(SO3)-EuK]: in [1], the “Quantum yield (HSA)” value worked out at 16%, the Brightness (HSA) turned out to be 38900 L/mol/cm and the Molar extinction coefficient free dye (HSA) amounted to 243000 L/mol/cm. In series [1] (text b242), the “brightness compared to PSMA-HSG” value is on record as “fivefold lower brightness”. Also, the “fluorescence signal in the xenografts” value in series [2] (2 h p.i., ligand dose 1 nmol, in vivo and ex vivo) is “weakest signal”. The detectable fluorescence signal entry in series [2] is given as “virtually not detectable”. Moreover, in the series with plasma proteins, the “tendency to associate with plasma proteins” value was found to be 77.9%. Besides, the “reduction in affinity compared to the mono-sulfonated analog Ac-mas3-Cy5(SO3)-EuK” value at PSMA [3] is given as “almost eight-fold reduction”. On PSMA [3] (LNCaP cells, free mas3-chelator, novel compounds), the IC50 was found to be 131 ± 29 nM.
Usually fraction unbound stands for the share of the substance not bound to proteins or other matrix. A lower fraction unbound goes with little free substance. In the case of `CC(=O)SCC(=O)N[C@H](CO)C(=O)N[C@H](CO)C(=O)N[C@H](CO)C(=O)NCCCCC(=O)NCCCCN1\C(=C/C=C/C=C/C2=[N+](CCCCCC(=O)NCCCC[C@H](NC(=O)N[C@@H](CCC(=O)O)C(=O)O)C(=O)O)c3ccc(S(=O)(=O)[O-])cc3C2(C)C)C(C)(C)c2ccccc21` [Ac-mas3-Cy5(SO3)-EuK], in [1], the “Quantum yield (HSA)” value is 21%, the Brightness (HSA) is 33800 L/mol/cm and the Molar extinction coefficient free dye (HSA) was 161000 L/mol/cm. Besides, in series [2], the detectable fluorescence signal entry is listed as “weak”. Moreover, at PSMA [4], the IC50 was 17.8 ± 2.9 nM. In addition, the fraction unbound in the series “Plasma protein binding” (setting [8]) was 0.028.
Usually tissue uptake stands for the percentage of the injected dose found per gram of tissue. In general, logP refers to a log measure of how a compound divides between an organic and an aqueous phase. A low value points to lower lipophilicity. On to `C[N+]1=C(/C=C/C=C/C=C2/N(CCCCCC(=O)NCCCC[C@@H](NC(=O)[C@@H](CO)NC(=O)[C@@H](CO)NC(=O)[C@@H](CO)NC(=O)CS)C(=O)N[C@H](Cc3ccc(O)cc3)C(=O)N[C@H](Cc3ccc4ccccc4c3)C(=O)N[C@H](CCCCNC(=O)CCCCCCC(=O)NCCCC[C@H](NC(=O)N[C@@H](CCC(=O)O)C(=O)O)C(=O)O)C(=O)O)c3ccc(S(=O)(=O)O)cc3C2(C)C)C(C)(C)c2cc(S(=O)(=O)[O-])ccc21` [[^99mTc]PSMA-HSG, metal not drawn], for which, in [5], the tissue uptake at 6 h is 17.1 ± 2.9 %ID/g. The fraction unbound in the series “Plasma protein binding” (Plasma Protein Binding (%)) was 0.007; in the series “Plasma protein binding” (setting [8]), 0.006. Besides, the lipophilicity (logP) in [6] is -2.94. Also, the “specificity of tracer uptake in tumor and PSMA-positive tissues” value in [7] was “PSMA-specific”.
